Data on 19 molecules can be found in article PMC7588459 (Scientific Reports, 2020).

This experiment addresses T1, Nipah virus attachment (receptor-binding) glycoprotein (GP), wild type (Nipah virus; strain of the assayed …, UniProt Q9IH62).
T1 construct: source: HEK 293-F FreeStyle, transiently transfected, purified from supernatant (Ni-NTA)
The experiment can be described thus: ELISA. Particulars: both partners purified. A general note: An ELISA detects its analyte on a solid surface through an enzyme-linked reagent.

B1: m102.4 VH K31A (antibody, V domains shown)
VH: EVQVIQSGADVKKPGSSVKVSCKSSGGTFSAYAINWVRQAPGQGLEWMGGIIPILGIANYAQKFQGRVTITTDESTSTAYMELSSLRSEDTAVYYCARGWGREQLAPHPSQYYYYYYGMDVWGQGTTVTVSS
VL: EIVMTQSPGTLSLAPGERATLSCWASQSVRNNYLAWYQQKPGQAPRLVIYNGSTRATGIPDRFSGSGSGTDFTLTISRLDPEDFAVYYCQQYGNSRRVTFGGGTKVEIK
In the case of B1, the Kd was 0.08 nM.

B2: m102.4 VH G56A (antibody, V domains shown)
VH: EVQVIQSGADVKKPGSSVKVSCKSSGGTFSKYAINWVRQAPGQGLEWMGGIIPILAIANYAQKFQGRVTITTDESTSTAYMELSSLRSEDTAVYYCARGWGREQLAPHPSQYYYYYYGMDVWGQGTTVTVSS
VL: EIVMTQSPGTLSLAPGERATLSCWASQSVRNNYLAWYQQKPGQAPRLVIYNGSTRATGIPDRFSGSGSGTDFTLTISRLDPEDFAVYYCQQYGNSRRVTFGGGTKVEIK
The molecule B2 yielded a Kd of 0.09 nM.

B3: m102.4 VH L105A (antibody, V domains shown)
VH: EVQVIQSGADVKKPGSSVKVSCKSSGGTFSKYAINWVRQAPGQGLEWMGGIIPILGIANYAQKFQGRVTITTDESTSTAYMELSSLRSEDTAVYYCARGWGREQAAPHPSQYYYYYYGMDVWGQGTTVTVSS
VL: EIVMTQSPGTLSLAPGERATLSCWASQSVRNNYLAWYQQKPGQAPRLVIYNGSTRATGIPDRFSGSGSGTDFTLTISRLDPEDFAVYYCQQYGNSRRVTFGGGTKVEIK
B3 yielded a Kd of 0.1 nM.

B4: m102.4 VH S110A (antibody, V domains shown)
VH: EVQVIQSGADVKKPGSSVKVSCKSSGGTFSKYAINWVRQAPGQGLEWMGGIIPILGIANYAQKFQGRVTITTDESTSTAYMELSSLRSEDTAVYYCARGWGREQLAPHPAQYYYYYYGMDVWGQGTTVTVSS
VL: EIVMTQSPGTLSLAPGERATLSCWASQSVRNNYLAWYQQKPGQAPRLVIYNGSTRATGIPDRFSGSGSGTDFTLTISRLDPEDFAVYYCQQYGNSRRVTFGGGTKVEIK
In turn, B4 came in with a Kd of 0.13 nM.

B5: m102.4 VH Y113A (antibody, V domains shown)
VH: EVQVIQSGADVKKPGSSVKVSCKSSGGTFSKYAINWVRQAPGQGLEWMGGIIPILGIANYAQKFQGRVTITTDESTSTAYMELSSLRSEDTAVYYCARGWGREQLAPHPSQYAYYYYGMDVWGQGTTVTVSS
VL: EIVMTQSPGTLSLAPGERATLSCWASQSVRNNYLAWYQQKPGQAPRLVIYNGSTRATGIPDRFSGSGSGTDFTLTISRLDPEDFAVYYCQQYGNSRRVTFGGGTKVEIK
B5 had a Kd of 0.12 nM.

B6: m102.4 VH A106W (antibody, V domains shown)
VH: EVQVIQSGADVKKPGSSVKVSCKSSGGTFSKYAINWVRQAPGQGLEWMGGIIPILGIANYAQKFQGRVTITTDESTSTAYMELSSLRSEDTAVYYCARGWGREQLWPHPSQYYYYYYGMDVWGQGTTVTVSS
VL: EIVMTQSPGTLSLAPGERATLSCWASQSVRNNYLAWYQQKPGQAPRLVIYNGSTRATGIPDRFSGSGSGTDFTLTISRLDPEDFAVYYCQQYGNSRRVTFGGGTKVEIK
As for B6, the Kd was 4.95 nM.

B7: m102.4 VH P109A (antibody, V domains shown)
VH: EVQVIQSGADVKKPGSSVKVSCKSSGGTFSKYAINWVRQAPGQGLEWMGGIIPILGIANYAQKFQGRVTITTDESTSTAYMELSSLRSEDTAVYYCARGWGREQLAPHASQYYYYYYGMDVWGQGTTVTVSS
VL: EIVMTQSPGTLSLAPGERATLSCWASQSVRNNYLAWYQQKPGQAPRLVIYNGSTRATGIPDRFSGSGSGTDFTLTISRLDPEDFAVYYCQQYGNSRRVTFGGGTKVEIK
B7 returned a Kd of 0.1 nM.

B8: m102.4 VH Q111A (antibody, V domains shown)
VH: EVQVIQSGADVKKPGSSVKVSCKSSGGTFSKYAINWVRQAPGQGLEWMGGIIPILGIANYAQKFQGRVTITTDESTSTAYMELSSLRSEDTAVYYCARGWGREQLAPHPSAYYYYYYGMDVWGQGTTVTVSS
VL: EIVMTQSPGTLSLAPGERATLSCWASQSVRNNYLAWYQQKPGQAPRLVIYNGSTRATGIPDRFSGSGSGTDFTLTISRLDPEDFAVYYCQQYGNSRRVTFGGGTKVEIK
Regarding B8, the Kd worked out at 0.08 nM.

B9: m102.4 VH R102A (antibody, V domains shown)
VH: EVQVIQSGADVKKPGSSVKVSCKSSGGTFSKYAINWVRQAPGQGLEWMGGIIPILGIANYAQKFQGRVTITTDESTSTAYMELSSLRSEDTAVYYCARGWGAEQLAPHPSQYYYYYYGMDVWGQGTTVTVSS
VL: EIVMTQSPGTLSLAPGERATLSCWASQSVRNNYLAWYQQKPGQAPRLVIYNGSTRATGIPDRFSGSGSGTDFTLTISRLDPEDFAVYYCQQYGNSRRVTFGGGTKVEIK
Regarding B9, the Kd is 0.09 nM.

B10: m102.4 VH I54A (antibody, V domains shown)
VH: EVQVIQSGADVKKPGSSVKVSCKSSGGTFSKYAINWVRQAPGQGLEWMGGIIPALGIANYAQKFQGRVTITTDESTSTAYMELSSLRSEDTAVYYCARGWGREQLAPHPSQYYYYYYGMDVWGQGTTVTVSS
VL: EIVMTQSPGTLSLAPGERATLSCWASQSVRNNYLAWYQQKPGQAPRLVIYNGSTRATGIPDRFSGSGSGTDFTLTISRLDPEDFAVYYCQQYGNSRRVTFGGGTKVEIK
Take B10: the dissociation constant Kd is 0.13 nM.

B11: m102.4 VH Y112A (antibody, V domains shown)
VH: EVQVIQSGADVKKPGSSVKVSCKSSGGTFSKYAINWVRQAPGQGLEWMGGIIPILGIANYAQKFQGRVTITTDESTSTAYMELSSLRSEDTAVYYCARGWGREQLAPHPSQAYYYYYGMDVWGQGTTVTVSS
VL: EIVMTQSPGTLSLAPGERATLSCWASQSVRNNYLAWYQQKPGQAPRLVIYNGSTRATGIPDRFSGSGSGTDFTLTISRLDPEDFAVYYCQQYGNSRRVTFGGGTKVEIK
Consider B11, for which binding was characterised by a dissociation constant (Kd) of 0.11 nM.

B12: m102.4 VH Q104A (antibody, V domains shown)
VH: EVQVIQSGADVKKPGSSVKVSCKSSGGTFSKYAINWVRQAPGQGLEWMGGIIPILGIANYAQKFQGRVTITTDESTSTAYMELSSLRSEDTAVYYCARGWGREALAPHPSQYYYYYYGMDVWGQGTTVTVSS
VL: EIVMTQSPGTLSLAPGERATLSCWASQSVRNNYLAWYQQKPGQAPRLVIYNGSTRATGIPDRFSGSGSGTDFTLTISRLDPEDFAVYYCQQYGNSRRVTFGGGTKVEIK
Consider B12, for which the Kd was 0.1 nM.

B13: m102.4 VH E103A (antibody, V domains shown)
VH: EVQVIQSGADVKKPGSSVKVSCKSSGGTFSKYAINWVRQAPGQGLEWMGGIIPILGIANYAQKFQGRVTITTDESTSTAYMELSSLRSEDTAVYYCARGWGRAQLAPHPSQYYYYYYGMDVWGQGTTVTVSS
VL: EIVMTQSPGTLSLAPGERATLSCWASQSVRNNYLAWYQQKPGQAPRLVIYNGSTRATGIPDRFSGSGSGTDFTLTISRLDPEDFAVYYCQQYGNSRRVTFGGGTKVEIK
B13 came in with a Kd of 1.83 nM.

B14: m102.4 VH P107A (antibody, V domains shown)
VH: EVQVIQSGADVKKPGSSVKVSCKSSGGTFSKYAINWVRQAPGQGLEWMGGIIPILGIANYAQKFQGRVTITTDESTSTAYMELSSLRSEDTAVYYCARGWGREQLAAHPSQYYYYYYGMDVWGQGTTVTVSS
VL: EIVMTQSPGTLSLAPGERATLSCWASQSVRNNYLAWYQQKPGQAPRLVIYNGSTRATGIPDRFSGSGSGTDFTLTISRLDPEDFAVYYCQQYGNSRRVTFGGGTKVEIK
For the molecule B14, the Kd is 0.09 nM.

B15: m102.4 VH L55A (antibody, V domains shown)
VH: EVQVIQSGADVKKPGSSVKVSCKSSGGTFSKYAINWVRQAPGQGLEWMGGIIPIAGIANYAQKFQGRVTITTDESTSTAYMELSSLRSEDTAVYYCARGWGREQLAPHPSQYYYYYYGMDVWGQGTTVTVSS
VL: EIVMTQSPGTLSLAPGERATLSCWASQSVRNNYLAWYQQKPGQAPRLVIYNGSTRATGIPDRFSGSGSGTDFTLTISRLDPEDFAVYYCQQYGNSRRVTFGGGTKVEIK
The molecule B15 gave a Kd of 0.1 nM.

B16: m102.4 VL R30A (antibody, V domains shown)
VH: EVQVIQSGADVKKPGSSVKVSCKSSGGTFSKYAINWVRQAPGQGLEWMGGIIPILGIANYAQKFQGRVTITTDESTSTAYMELSSLRSEDTAVYYCARGWGREQLAPHPSQYYYYYYGMDVWGQGTTVTVSS
VL: EIVMTQSPGTLSLAPGERATLSCWASQSVANNYLAWYQQKPGQAPRLVIYNGSTRATGIPDRFSGSGSGTDFTLTISRLDPEDFAVYYCQQYGNSRRVTFGGGTKVEIK
notes: also called LC:R30 to alanine
Regarding B16, the Kd was found to be 0.13 nM.

B17: m102.4 VH H108A (antibody, V domains shown)
VH: EVQVIQSGADVKKPGSSVKVSCKSSGGTFSKYAINWVRQAPGQGLEWMGGIIPILGIANYAQKFQGRVTITTDESTSTAYMELSSLRSEDTAVYYCARGWGREQLAPAPSQYYYYYYGMDVWGQGTTVTVSS
VL: EIVMTQSPGTLSLAPGERATLSCWASQSVRNNYLAWYQQKPGQAPRLVIYNGSTRATGIPDRFSGSGSGTDFTLTISRLDPEDFAVYYCQQYGNSRRVTFGGGTKVEIK
Molecule B17 yielded a Kd of 0.09 nM.

B18: m102.4 VH Y114A (antibody, V domains shown)
VH: EVQVIQSGADVKKPGSSVKVSCKSSGGTFSKYAINWVRQAPGQGLEWMGGIIPILGIANYAQKFQGRVTITTDESTSTAYMELSSLRSEDTAVYYCARGWGREQLAPHPSQYYAYYYGMDVWGQGTTVTVSS
VL: EIVMTQSPGTLSLAPGERATLSCWASQSVRNNYLAWYQQKPGQAPRLVIYNGSTRATGIPDRFSGSGSGTDFTLTISRLDPEDFAVYYCQQYGNSRRVTFGGGTKVEIK
The molecule B18 registered a Kd of 0.07 nM.

B19: m102.4 VH I57A (antibody, V domains shown)
VH: EVQVIQSGADVKKPGSSVKVSCKSSGGTFSKYAINWVRQAPGQGLEWMGGIIPILGAANYAQKFQGRVTITTDESTSTAYMELSSLRSEDTAVYYCARGWGREQLAPHPSQYYYYYYGMDVWGQGTTVTVSS
VL: EIVMTQSPGTLSLAPGERATLSCWASQSVRNNYLAWYQQKPGQAPRLVIYNGSTRATGIPDRFSGSGSGTDFTLTISRLDPEDFAVYYCQQYGNSRRVTFGGGTKVEIK
B19 yielded a Kd of 0.1 nM.

What is called Kd is a measure of binding affinity in units of concentration.
